Data taken from US20200317817A1 (XOMA US, published 2020).

T1: recombinant N-terminal extracellular domain of the human PTH1R receptor (human, UniProt Q03431 27-188, limits assumed)
T1 construct: domain: N-terminal extracellular domain; Bought reagent; also called N-ECD PTH1R; PTH1R N-terminal ECD
T1 sequence (looked up): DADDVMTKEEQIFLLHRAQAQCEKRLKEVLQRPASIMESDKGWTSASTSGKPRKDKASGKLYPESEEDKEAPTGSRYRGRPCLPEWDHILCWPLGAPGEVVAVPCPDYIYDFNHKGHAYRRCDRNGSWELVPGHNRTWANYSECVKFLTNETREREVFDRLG

T2: human PTH1R on Saos-2 cells (endogenous) (human, UniProt Q03431 27-593)
T2 sequence (looked up): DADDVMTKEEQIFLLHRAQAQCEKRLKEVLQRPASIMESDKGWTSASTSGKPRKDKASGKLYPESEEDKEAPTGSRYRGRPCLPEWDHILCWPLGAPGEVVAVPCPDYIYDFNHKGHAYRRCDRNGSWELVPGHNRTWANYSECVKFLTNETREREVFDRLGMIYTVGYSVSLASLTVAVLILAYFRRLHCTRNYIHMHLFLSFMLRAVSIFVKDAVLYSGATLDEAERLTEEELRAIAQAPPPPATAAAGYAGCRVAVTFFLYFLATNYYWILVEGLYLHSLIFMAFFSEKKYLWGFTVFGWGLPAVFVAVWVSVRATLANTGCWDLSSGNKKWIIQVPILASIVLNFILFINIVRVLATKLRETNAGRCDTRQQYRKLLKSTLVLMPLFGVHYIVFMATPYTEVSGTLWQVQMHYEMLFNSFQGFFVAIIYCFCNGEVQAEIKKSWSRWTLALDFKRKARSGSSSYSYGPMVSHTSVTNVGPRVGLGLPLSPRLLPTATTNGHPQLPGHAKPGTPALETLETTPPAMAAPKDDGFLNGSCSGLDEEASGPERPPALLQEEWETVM

T3: human PTH1R overexpressed on CHO cells (human, UniProt Q03431 27-593)
T3 construct: whole, on cells; also called CHO human PTH1R; CHO Human PTHR
T3 sequence (looked up): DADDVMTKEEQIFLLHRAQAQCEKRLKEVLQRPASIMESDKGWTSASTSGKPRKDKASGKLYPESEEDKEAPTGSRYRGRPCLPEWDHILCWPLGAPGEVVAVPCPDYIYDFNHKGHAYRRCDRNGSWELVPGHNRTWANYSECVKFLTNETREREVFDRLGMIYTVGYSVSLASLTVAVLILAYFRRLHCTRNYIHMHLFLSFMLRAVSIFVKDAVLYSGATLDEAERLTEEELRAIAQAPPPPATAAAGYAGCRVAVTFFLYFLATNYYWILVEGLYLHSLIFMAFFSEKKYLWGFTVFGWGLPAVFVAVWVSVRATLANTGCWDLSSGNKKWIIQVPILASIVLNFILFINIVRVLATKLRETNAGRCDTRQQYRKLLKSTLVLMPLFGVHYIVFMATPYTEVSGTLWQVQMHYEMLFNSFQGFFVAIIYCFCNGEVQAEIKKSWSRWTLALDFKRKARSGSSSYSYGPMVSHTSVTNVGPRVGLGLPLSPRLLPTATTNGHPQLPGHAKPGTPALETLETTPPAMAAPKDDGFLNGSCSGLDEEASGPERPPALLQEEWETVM

T4: mouse PTH1R overexpressed on CHO cells (mouse, UniProt P41593 27-591)
T4 construct: whole, on cells; also called CHO mouse PTH1R; CHO Mouse PTHR
T4 sequence (looked up): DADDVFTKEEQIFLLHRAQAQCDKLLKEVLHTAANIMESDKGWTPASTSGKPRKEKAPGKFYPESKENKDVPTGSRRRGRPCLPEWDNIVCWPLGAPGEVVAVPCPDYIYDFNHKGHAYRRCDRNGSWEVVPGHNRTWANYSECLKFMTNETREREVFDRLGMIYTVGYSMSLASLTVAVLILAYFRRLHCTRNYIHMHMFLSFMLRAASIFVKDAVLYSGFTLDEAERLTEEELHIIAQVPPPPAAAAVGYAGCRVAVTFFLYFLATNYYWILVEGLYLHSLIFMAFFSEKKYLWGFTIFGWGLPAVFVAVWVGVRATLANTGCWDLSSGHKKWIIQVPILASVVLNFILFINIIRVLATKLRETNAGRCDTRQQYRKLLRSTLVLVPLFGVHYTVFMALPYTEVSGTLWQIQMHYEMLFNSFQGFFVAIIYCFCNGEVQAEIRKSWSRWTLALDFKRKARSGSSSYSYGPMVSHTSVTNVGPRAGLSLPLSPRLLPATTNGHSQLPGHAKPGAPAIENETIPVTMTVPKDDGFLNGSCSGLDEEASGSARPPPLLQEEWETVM


Experiments:
[1] = target: T1, recombinant N-terminal extracellular …; test: SPR, IgG captured, ECD injected
Summary of the method: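 Antibodies (0.5 μg/mL) captured on anti-human IgG-Fc chip to 100–200 RU in HBS-EP+ with 2.5 mg/mL BSA; receptor ECD injected at 30 μL/minute for 240 s, 360 s dissociation, 3M MgCl regeneration. Double-referenced data fit globally for ka and kd; KD=kd/kₐ.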

[2] = target: T2, human PTH1R on Saos-2 cells (endogenous); test: cell-based or functional assay
[3] = target: T3, human PTH1R overexpressed on CHO cells; test: flow cytometry on CHO cells, with 1 uM PTH as competitor
Description: (§1) To characterize antibody binding to PTH1R, cells were labeled with either CellTrace™ CFSE or CellTrace™ Violet. Unlabeled CHOK1 parent, CHO human PTH1R labeled with CellTrace™CFSE, and CHO mouse PTH1R labeled with CellTrace™Violet were pooled together and stained with increasing concentrations of antibody. Antibodies were incubated for 24 hr at 4° C. followed by two washes with FACS Buffer (0.5% BSA, 0.1% NaN3 in DPBS). Cells were then incubated with Allophycocyanin (APC) AffiniPure F(ab′)₂ Fragment Goat Anti-Human IgG (H+L) (Jackson ImmunoResearch, West Grove, Pa.) for 20 minutes at 4° C. Followed by two washes, cells were resuspended in FACS Buffer. Samples were acquired using BD Cytometer (BD Biosciences, San Jose, Calif.) and data were analyzed using FlowJo (FlowJo, LLC, Ashland, Oreg.) and Prism (GraphPad Software, La Jolla, Calif.).

[4] = target: T4, mouse PTH1R overexpressed on CHO cells; test: as above
Description: as §1

Kd [1]	koff [1]	kon [1]	EC50 of antibody, neutralization of M-CSF production induced by 12.5 nM PTHrP (1-36) [2]	fold shift of the PTHrP (1-36) dose response, M-CSF secretion by Saos-2 cells, 40 µg/mL antibody [2]	EC50 [3]	EC50 [4]	fold shift of the PTH (1-34) dose response, M-CSF secretion by Saos-2 cells, 40 µg/mL antibody [2]	Binder
0.22 nM	7.6e-05 s⁻¹	340000 M⁻¹ s⁻¹	4 nM	> 200 fold				XPA.85.329 (antibody, V domains shown, IgG; also called Ab329; XPA.329) VH: QMQLVQSGAEVKKPGSSVKVSCKASGGTFSSYAISWVRQAPGQGLEWMGGIIPIFGTANYAQKFQGRVTITADESTSTAYMELSSLRSEDTAVYYCARGYVVARLWGQGTLVTVSS VL: DIVMTQTPLSLSVTPGQPASISCKSSQSLLHIDGLTYLYWYLQKPGQPPQLLIYEVSHRFSGVSDKFSGSGSGTDFTLTISRVEAEDVGVYYCMQSLHLPITFGQGTRLEIK
0.31 nM	0.0006 s⁻¹	1.9e+06 M⁻¹ s⁻¹			5.39 nM	0.778 nM		XPA.85.341 (antibody, V domains shown, Light-chain-shuffled variant of XPA.85.017) VH: EVQLVETGGGVVRPGGSLRLSCAASGFTFSSSAMSWVRQTPGKELQWVSAITPGGEGTYYADVVKGRFTISRDNSKDTLYLQMDSLRAEDTAVYYCARDLYGSYGDAFDIWGQGTLVTVSS VL: SYELTQPSSVSVSPGQTASITCSGDKLGEKYASWYQQKPGQSPVLVMFEDTKRPSGIPERFSGSNSGNTATLTISGTQAEDEADYYCQAWDSSWVFGGGTQLTVL
0.099 nM	0.00036 s⁻¹	3.6e+06 M⁻¹ s⁻¹			1.86 nM	0.206 nM	~7 fold	XPA.85.287 (antibody, V domains shown, also called Ab287) VH: EVQLVETGGGVVRPGGSLRLSCAASGFTFSSSAMSWVRQTPGKELQWVSAITPGGEGTYYADVVKGRFTISRDNSKDTLYLQMDSLRAEDTAVYYCARDLYGSYGDAFDIWGQGTLVTVSS VL: SYVLTQPPSVSVAPGQTARITCSGDKLGDRYVSWYQQKPGQSPVLVMFEDTGRPAGIPERFSGSNSGNTATLTISGTQAEDEADYYCQAWGTSWVFGGGTQLTVL
0.22 nM	0.00065 s⁻¹	2.9e+06 M⁻¹ s⁻¹			2.98 nM	0.327 nM		XPA.85.339 (antibody, V domains shown, Light-chain-shuffled variant of XPA.85.017) VH: EVQLVETGGGVVRPGGSLRLSCAASGFTFSSSAMSWVRQTPGKELQWVSAITPGGEGTYYADVVKGRFTISRDNSKDTLYLQMDSLRAEDTAVYYCARDLYGSYGDAFDIWGQGTLVTVSS VL: SYELTQPPSVSVAPGQTATITCSGDRLGDKFISWYQQKPGQSPLLVIFEDNERPSRIPERFSGSNSGNSATLTISGTQAVDEADYYCQAWDSSWVFGGGTQLTVL
